Measured values published in the nanobody polyreactivity screen of Harvey et al. (2022).

Assay: yeast display, Sf9 membrane polyspecificity reagent, FACS + sequencing; frameworks hold sequencing errors
Method in brief: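 Galactose induction of a Saccharomyces cerevisiae BJ5465 synthetic nanobody display library ran 36–48 hours. The cells were then stained for 1 hour at 4 °C with 10% biotinylated, detergent-solubilized Sf9 membrane reagent, pulled down on streptavidin microbeads and FACS-sorted into low and high (top ~1%) gates on expression and reagent-binding fluorescence. Labels for polyreactivity follow the gate of origin.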

Row | Sequence | polyreactivity (PSR sort gate)
1 | QVQLVESGGGLVQAGGSLRLTCAASGRIFYHYAMGWYRQATGKERELVATISGAGSTHYADSVKGRFTISRDNAKNTVYLQMNSLKAEDTAVYYCNADTYLIRYWSMLEYWGQGTQVTVSS | low polyreactivity
2 | QVQLVESGGGLVQAGGSLRLSCAASGSIFTRNAMGWYRQAPGKERELVAAISWRGGITNYADSVKGRFTISRDNAKNTVYLQMNSLKPEDTAVYYCNKIRTRGGYGYWGQGTQVTVSS | high polyreactivity
3 | QVQLVESGGGLVQAGGSLRLSCAASVRTYGFNTMGSYRQAPGKERELVAANTTSGGSTYYADSVKGRFTISRDNAKNTVYLQMNSLKPDDSAVYYCAKDYYSKHFPIYEYWGQGTQVTVSS | low polyreactivity
4 | QVQLVETGGGLVQAGSSLRLSCAASGSTFIVYAMGWYRQAPGKEREFVAAITYRGGSSYYADSVKGRFTISRDNAKNTVYLQMNSLKPEDTAVYYCATETDRYPYIRRYQFPYYYWGQGTQVTVSS | high polyreactivity
5 | QVQLVESGGGLVQAGGSLRLSCAASGSTFEANAMGWYRQAPGKERELVAVITWTGGSTYYADSVKGRFTISRDNAKNTVYLQMNSLKPEDTAVYYCAADGVVPGRFFWPAHEYDYWGQGTQVTVSS | low polyreactivity
6 | QVQLVESGGGLVQAGGSLRLSCAASGRIFSRYAMGWYRQAPGKERELVAAITQSGTSTYYADSVKGRFTISRDNAKNTVYLQMKSLKPEDTAVYYCNAYRQYRYDYWGQGTQVTVSS | low polyreactivity
7 | QVQLVESGGGLVQAGGSLRLICAASGIIFDDYAMVWYRQAPGNERELVAAISVSGGSTYYADSVKGRFTISRDNAKNTVYLQMNSLKPEDTAVYYCAARLRWRYSYDYWGQGTQVTVSS | high polyreactivity
8 | QVQLVESGGGLVQAGGSLRLSCAASGRTFVVYAMGWYRQAPGKERELVAVISFTGDSTFYADSVKGRFTISRDNAKNTVYLQMNSLKPEDTAVYYCAADLDWSPHFGLPYDYWGQGTQVTVSS | low polyreactivity
9 | QVQLGESGGGLVQAGGSLRLSCAASGSTFAYNERGWYSQAPGHERELVADIRSGGNTNYADSVKGRFTISRDNAKNTVYLQMPSLKPEDTAVYYCATDGYRIDVYHPDYRYDYWGQGTQVTVSS | low polyreactivity
10 | QVQLVESGGCLVQAGGSLRLSCAASVRIFQIYAMGWYRQAPGKERELVATISSGTRTYYADSVKGRFTMSRDNAKNTVYLQMNSLKPEDTAVYYCAKTYATRHAYWAGTRYEDDYWGQGTQVTVSS | high polyreactivity
11 | QVQHVESRGGLVQAGGSLRLSCAASGLIFALYAMGWYRLAHGKERELVAAIDWSGGSTYYADSVKGRFTISRDNAKNTVYLQMNCLKPEDTAVYYCAADISSSPGNDYWGQGTQVTVSS | high polyreactivity
12 | QVQLVESGGGLVQAGGSLRLSCAASGSTFRYYAMGWYRQAPGKERELVAAINYSGGRTYYADSVKGRFTISRDNAKNTVYLQMNCVKPEDSAVYYCAADWSYLAVTDSTSDYDPNYGYWGQGTQVNVSS | high polyreactivity
13 | QVQLVESGGGLVQAGGSLRLSCAASGSIFFFNAMGWSRQAPGKERELVATISDTTDTDYADSVKGRFTISRENGKNTVYLQMNSLKPEDTAVYYCAKVKAWTEYYYWGQGTQVTVSS | low polyreactivity
14 | QVQLVESGGGLVQAGGSLRLSCAASGFTFGNNAMGWYRQAPGKERELVAAISKRGSSTYYADSVKGRFTISRDNAKNTVYLQMNSLKPEDTAVYYCAAPRSRSRTSRFDYWGQGTQVTVSS | high polyreactivity
15 | QVQHVESGGGLVQAGGSLRLSCAASGSIFTVNAMGWYRQAPGKERELVAAIDGSSGSTNYADSVKGRFTISRDNAKNTVYLQMNSLKPEDTAVYYCAADWSYEYGYWGQGTQVTVSS | low polyreactivity
16 | QVQLVESGGGLVQAGGSLRLSCAASGRTFGYNAMGWYRQAPGKERELVAAISSSGGSTYYADSVKGRFTISRDNAKNTVYLQMNSLKPEDTAVYYCATQGYSWAHGSDYWGQGTQVTVSS | low polyreactivity
17 | QVQLVESGGGLVQAGGSLRLSCAASGRTFVYYDMGWYRQAPGKERELVASISSGDSTNYADSVKGRFTISRDNAKNTVYLQMNSLKPEDTAVYDCAARGYLRGEQLYVFIRYDYWGQGTQVTVSS | low polyreactivity
18 | QLQLVESGGGLVQAGGSLRLSCAASGLTFSYYAMGWYRQAPGKETELVSAISRGGTTNYADSVKGRFTISRDNAKNTVYLQMNSLKPEDTAVYYCAASYFRRGFYSIYEYDYWGQGTQVTVSS | low polyreactivity
19 | QVQLVESGGGLVQAGGSLRLSCAASGSTFDINTMGWYRQAPGKEREFVAAITDSDDSTYYADSVKGRFTISRDNAKNTVYLQMNSLKPEDTAVYYCNYDYWGQGTQVTVSS | low polyreactivity
20 | QVQLVESGGGLVQAGGSLRLSCAASGSIFLVYAMGWYRQAPGKERELVAAIRISDSTNYADSVKGRFTISRDNAKNTVYLQMNSLKPEDTAVYYCNVDTVGLGGEKGGYYWGQGTQVTVSS | low polyreactivity
21 | QVQLVESGGGLVQAGGSLRLSCAASGRIFGLYVLGGYRQAPGKERELVAAIDDSGGDTYDADSVKGRFTISRDNAKNTVYIQMNSLKPEDTAVYYCPADYWGYYYGGYYYLRDYWGQGTQVTVSS | high polyreactivity
22 | QVQLVESGGGLVQAGGSLRLSCAASGRTFYPNAMGWYRQAPGKERELVAAITRSGGRTYYADSVKGRFTISRDNAKNTVYLQMNSLKPEDTAVYYCNADLYYHYYKYEYWGQGTQVTVSS | low polyreactivity

Row | Sequence | polyreactivity (PSR sort gate)
23 | QVQLVESGGGLVQAGGSLRLSCAASGSTFRYYAMGWYRQAPGKERELVAAITRSGSTYYADSVKGRFTISRDNAKNTVYLQMNSLKREDTAVYYCNADQYYGGRYVYLRHYNYWGQGTQVTVSS | high polyreactivity
24 | QVQLVESGGGLVQAGGSLRLSCADSGRIFGYYTMGWSRQAPGKERELVAAITSSGSSTYYADSVKGRFTISRDNAKNTVYLQMNSLKPEDTAVYYCNARAYWRNEYWGQGTQVTVSS | high polyreactivity
25 | QVQLVESGGGLVQAGGSLRLSCAASGRTFGRYAMGWYRQAPGKERELVAAITRSGGSTNYADSVKGRFTISRDNAKNTVYLQMNSLKPEDTAVYYCARRGYSVRTPEGYYWGQGTQVTVSS | high polyreactivity
26 | QVQLVESGGGLVQAGGSLRLSCAASGRTFRKNAMGWSRQAPGKDRELVAAISASGTSTYYADSVKGRFTISRDNAKNTVYLQLNSLKPEDTAVYYSAARSYGIYDYWGQGTQVTVSS | high polyreactivity
27 | QVQLVESGGGLVQAGGSLRLSCAASGSTFLVYAMGWYRQAPGKERELVAAITRRSTSTFYADSVKGRFTISRVNAKNTVYLQMNSLKPEDTAVYYWAADTRFISRENYWGQGTQVTVSS | high polyreactivity
28 | QVQLVESGGGLVQAGGSLRLSCAASGFTFYRNVMGWYRQAPGKERELVAAISSRGGSTYYADSVKGRFTISRDNAKNTVYLQMNSLKPEDTAVYYCNKARYTVISYDEYDYWGQGTQVTVSS | high polyreactivity
29 | QVQLVESGGGLVQAGGSLRLSCAASGISIRSYAMGWYRQAPGKERELVAAIRSGGSTSYADSVKGRFTISRDNAKNTVYLLMNSLKPEDTAVYYCAAGGYVPLPDITFWKFGYWGQGTQVNVSS | low polyreactivity
30 | QVQLVESGGGLVQAGGSLRLSCAASGRIFHWYTMGWYRQAPGKERELVATITDGGSTYYADSVKGRFTISRDNAKNTVYLQMNSLKPEDTAVYYCAARKIGTRRLRYPYYIFGYWGQGTQVTVSS | high polyreactivity
31 | QVQLVESGGGLVQAGGSLRLSCAASGRTFLQYAMGWYRQAPGKERELVAANTTSGGDTYYADSVKGRFTISRDNAKNTVYLQMNSMKPDDTAVYYCNAAFRVYIPHVPYFVDFDYWGQGTQVTLSS | low polyreactivity
32 | QVQLVESGGGLVQAGGSLRLSCAASGSIFLVNAMGWYRQAPGERKELVAAISWSSGSTYYADSVKGRFTISRDNAKNTVYLQMNSLKPEDTAVYYCAKRSSITYRYDYWGQGTQVTVSS | high polyreactivity
33 | QVQLQESGGGLVQAGGSLRLSCAASGNIFLGDTMGWYRQAPGKEREFVAAIARGGNPYYADSVKGRFTISRNNANNTVYLQKNSLKTEDTAVHYCAVQRSHASDYNYWCQGTQVTVSS | low polyreactivity
34 | QVQLVESGGGLVQAGGSLRLSCAPSGSTFRLYAMGWYRQAPGKERELVAVISGSGGNTYDADSVKGRFTISRDNAKNTVELQMNSLKPEDTAVDYCAAYSYRDRDDYWGQGTQGTVSS | high polyreactivity
35 | QVQLVESGGGLVQAGGSLRLSCAASGSTFVWYAKGWYIQAPGKERELVAAINFGGTTYYADSVKGRFTISRDNAKNTVYLQMNSLKPEETAVYYCATEYDYGSWFPDGWGIFDYWGQGTQVTVSS | low polyreactivity
36 | QVQLVESGGGLVQAGGSLRLSCAASGRIFGAYAMGWYRQAPGKERELVAAITSAGSTHYADSVKGRFTISRDNAKNTVYLQMNCLKPQDTAVYYCAADRYPWPLQYVEYDSDYWGQGTQVTVSS | low polyreactivity
37 | QVQLVESGGGLVQAGGSLRLSCAASGSTFKRYAMGWYRQAPGKERELVASISQRGGTTYYADSVKGRFTISRDNAKNTVYLQKNSLKPEDTAVYYCAKGFGWTRTIYDYWGQGTQVTVSS | high polyreactivity
38 | QVQLVESGGGLVQAGGSLRLSCAASGRTFRYYAMGWYRQAPGKERELVAAITSGGSTYYADSVKGRFTISRDNAKNTVYLLMNSLKPEDTAAYYCAAEYVYPYWNGFDYWGQGTQVTVSS | low polyreactivity
39 | QVQLVESGGGLVQAGGSLRLSCAAYGLTFDSYAMGWYRQAPGKERELVAAISYGGGSTNFADSVKGRFTISRDNAKNTVYLQLNSLKPVDTAVYYCGAEPGYYDEYGYWGQGTQVTVSS | low polyreactivity
40 | QVQLVESGGGLVQAGGSLRLSCAASGIIFRDNAMGWYRQAPGTERELVAAIDSSGGTTYADSVKGRFTISRDNAKNTVYLQMNSLKPEDTAVYYCATEVYSTVSYYGYDYYGRNYYYWGQGPQVTVSS | low polyreactivity
41 | QVQIVESGGGLVQAGGSLRLSCAASGSTLGVNAMGWYRQAPGKERELVAAISKSGGGTYYADSVKGRFTISRDIAKNTVYLQMNRLIPEDTAVYYCNAPVSRKYYSWGQGTQVTVSS | high polyreactivity
42 | QVQLVESGGGFVQAGGSLRLSCAASGRIFGVYALGWYRPAPGKERELVAAISYSGGSTYYADSVKGRFTISRVNAKNTVYLQMNSLKPEDTAVYYCAAKIFPKGDYWGQGTQVTVSS | high polyreactivity
43 | QVQLVESGGGLVQAGGSLRLICAASVSTFRDHAMGWYRQAPAKERDLVAAIDIDSSTYYADSVKGRFTISLDNAKNSVYLHMNSLKPEDTAVYYCNKDASGGTTTEVDYWGQGTQVTVSS | low polyreactivity
